This is an account of results in the supplement of paper PMC7125110.

± gives the standard error. For part of these data: Fewer inactive variants are shown than the library holds.

The labels stand for the following.
B1: glmS ribozyme (parent)
chain: AUAAAAGCGCCAGAACUACAGAAAUGUAGUUGACGAGGAGGAGGUUUAUCGAAUUUUCGGCGGAUGCCUCCAAA

What all share (settings): with glucosamine-6-phosphate
The variants in data set [1] derive from B1. In words: kcat; higher = faster cleavage; RNA array. The method, boiled down:
(§1)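 Weighted Michaelis–Menten fits across concentrations supplied kcat and KM, based on kobs from one- or two-exponential decay fits to normalised per-tile medians. The data came from barcoded ribozyme variants transcribed in situ by E. coli RNA polymerase on sequenced MiSeq chips and tracked at 37 °C by a hybridised Cy3 probe. Glucosamine-6-phosphate (40 μM to 10 mM) in HEPES/KCl/Mg(OAc)2 buffer was flowed in.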

Variants of B1 are the subject of data set [2]. The experiment in a line: KM; higher = weaker cofactor use; RNA array. In outline: as §1
Variants of B1 are the subject of data set [3]. In words: self-cleavage kobs at 640 uM GlcN6P; higher = faster cleavage; RNA array. In outline: as §1
Variants of B1 are the subject of data set [4]. The experiment in a line: self-cleavage kobs at 2500 uM GlcN6P; higher = faster cleavage; RNA array. The method, boiled down: as §1
Data set [5] covers variants of B1. In words: self-cleavage kobs at 10000 uM GlcN6P; higher = faster cleavage; RNA array. The method, boiled down:
as §1

Variants of B1 are the subject of data set [6]. In words: self-cleavage kobs at 40 uM GlcN6P; higher = faster cleavage; RNA array. In outline:
as §1

In data set [7] the parent is B1. The experiment in a line: self-cleavage kobs at 160 uM GlcN6P; higher = faster cleavage; RNA array. In outline: as §1

The term kcat denotes the number of substrate molecules converted per active site and unit of time at saturation. What is called KM is the substrate concentration at which the rate is half of its maximum.

Regarding C11U U46G, the catalytic constant (kcat) with glucosamine-6-phosphate [1] was 0.000268 ± 4.3e-05 s⁻¹. In addition, in the data set with glucosamine-6-phosphate [2], the Michaelis-Menten constant (KM) came to 2460 ± 740 µM. Also, in the data set with glucosamine-6-phosphate [3], the “self-cleavage kobs at 640 uM GlcN6P” value came to 5.11e-05 ± 7.1e-06 s⁻¹. In addition, in the data set with glucosamine-6-phosphate [4], the “self-cleavage kobs at 2500 uM GlcN6P” value is 0.00018 ± 2.7e-05 s⁻¹. Besides, the “self-cleavage kobs at 10000 uM GlcN6P” value with glucosamine-6-phosphate [5] is 0.000204 ± 2.3e-05 s⁻¹.

Turning to C10A U69C, the turnover number (kcat) with glucosamine-6-phosphate [1] came out at 1.7e-05 ± 1.9e-06 s⁻¹.

On to U45C A48U, for which the kcat with glucosamine-6-phosphate [1] was found to be 7.71e-05 ± 4.6e-06 s⁻¹. For the same variant, the Michaelis constant (KM) with glucosamine-6-phosphate [2] came to 628 ± 170 µM. The “self-cleavage kobs at 2500 uM GlcN6P” value with glucosamine-6-phosphate [4] was 6.49e-05 ± 1.5e-05 s⁻¹. In addition, the “self-cleavage kobs at 10000 uM GlcN6P” value with glucosamine-6-phosphate [5] came to 6.96e-05 ± 1.9e-05 s⁻¹.

For G37U U65G, the kcat in the data set with glucosamine-6-phosphate [1] is < 1e-05 s⁻¹. Besides, the KM in the data set with glucosamine-6-phosphate [2] stood at 1260 ± 500 µM. The “self-cleavage kobs at 40 uM GlcN6P” value with glucosamine-6-phosphate [6] was < 1e-05 s⁻¹. Further, the “self-cleavage kobs at 160 uM GlcN6P” value with glucosamine-6-phosphate [7] was < 1e-05 s⁻¹. Also, the “self-cleavage kobs at 640 uM GlcN6P” value with glucosamine-6-phosphate [3] was < 1e-05 s⁻¹.

For G37A G40A, in the data set with glucosamine-6-phosphate [1], the kcat was 0.000755 ± 0.00012 s⁻¹. Further, the Michaelis-Menten constant (KM) with glucosamine-6-phosphate [2] was found to be 2830 ± 820 µM. Further, the “self-cleavage kobs at 160 uM GlcN6P” value in the data set with glucosamine-6-phosphate [7] worked out at 3.73e-05 ± 1.3e-05 s⁻¹. The “self-cleavage kobs at 640 uM GlcN6P” value in the data set with glucosamine-6-phosphate [3] is 0.000135 ± 3.7e-05 s⁻¹. The “self-cleavage kobs at 2500 uM GlcN6P” value in the data set with glucosamine-6-phosphate [4] is 0.000366 ± 7.6e-05 s⁻¹. The “self-cleavage kobs at 10000 uM GlcN6P” value with glucosamine-6-phosphate [5] was found to be 0.000583 ± 9.3e-05 s⁻¹.

With G13A G41U, in the data set with glucosamine-6-phosphate [1], the turnover number (kcat) was 5.73e-05 ± 8.7e-06 s⁻¹. Moreover, in the data set with glucosamine-6-phosphate [6], the “self-cleavage kobs at 40 uM GlcN6P” value is < 1e-05 s⁻¹.

As for C16U G60A, the catalytic constant (kcat) with glucosamine-6-phosphate [1] stood at 1.69e-05 ± 4.6e-06 s⁻¹. Also, the “self-cleavage kobs at 40 uM GlcN6P” value with glucosamine-6-phosphate [6] was < 1e-05 s⁻¹. Further, the “self-cleavage kobs at 2500 uM GlcN6P” value with glucosamine-6-phosphate [4] came to 2.66e-05 ± 1.3e-05 s⁻¹.

For U49G C68G, the kcat with glucosamine-6-phosphate [1] came out at 3.3e-05 ± 5.3e-06 s⁻¹. Besides, the “self-cleavage kobs at 2500 uM GlcN6P” value in the data set with glucosamine-6-phosphate [4] was 3.47e-05 ± 1.3e-05 s⁻¹.

In the case of C16A G51A U56G C68G, in the data set with glucosamine-6-phosphate [1], the turnover number (kcat) stood at 1.58e-05 ± 2.3e-06 s⁻¹.

Regarding U46C C71A, the catalytic constant (kcat) with glucosamine-6-phosphate [1] worked out at 0.000545 ± 4.7e-05 s⁻¹. In addition, the KM with glucosamine-6-phosphate [2] stood at 811 ± 130 µM. For the same variant, in the data set with glucosamine-6-phosphate [7], the “self-cleavage kobs at 160 uM GlcN6P” value is 8.19e-05 ± 2.2e-05 s⁻¹. In addition, the “self-cleavage kobs at 640 uM GlcN6P” value with glucosamine-6-phosphate [3] was determined as 0.000252 ± 4.5e-05 s⁻¹. For the same variant, the “self-cleavage kobs at 2500 uM GlcN6P” value in the data set with glucosamine-6-phosphate [4] turned out to be 0.00045 ± 9.1e-05 s⁻¹. Besides, the “self-cleavage kobs at 10000 uM GlcN6P” value in the data set with glucosamine-6-phosphate [5] stood at 0.000453 ± 0.00011 s⁻¹.

U55G U69G: the kcat with glucosamine-6-phosphate [1] was 7.83e-05 ± 1.5e-05 s⁻¹. The “self-cleavage kobs at 160 uM GlcN6P” value in the data set with glucosamine-6-phosphate [7] turned out to be 8.02e-05 ± 1.9e-05 s⁻¹. In addition, in the data set with glucosamine-6-phosphate [3], the “self-cleavage kobs at 640 uM GlcN6P” value amounted to 8.9e-05 ± 1.9e-05 s⁻¹. The “self-cleavage kobs at 10000 uM GlcN6P” value in the data set with glucosamine-6-phosphate [5] was 6.23e-05 ± 1.7e-05 s⁻¹.

Take A64U C70G: the turnover number (kcat) with glucosamine-6-phosphate [1] was determined as 1.26e-05 ± 2.6e-06 s⁻¹. In addition, the “self-cleavage kobs at 40 uM GlcN6P” value in the data set with glucosamine-6-phosphate [6] was < 1e-05 s⁻¹.

Consider U46G C71G, for which, in the data set with glucosamine-6-phosphate [1], the kcat is 0.000535 ± 0.00017 s⁻¹. Also, in the data set with glucosamine-6-phosphate [6], the “self-cleavage kobs at 40 uM GlcN6P” value stood at 4.15e-05 ± 1.4e-05 s⁻¹. For the same variant, the “self-cleavage kobs at 160 uM GlcN6P” value with glucosamine-6-phosphate [7] stood at 5.99e-05 ± 1.8e-05 s⁻¹. In addition, the “self-cleavage kobs at 640 uM GlcN6P” value with glucosamine-6-phosphate [3] turned out to be 0.000392 ± 7.6e-05 s⁻¹. In addition, the “self-cleavage kobs at 2500 uM GlcN6P” value with glucosamine-6-phosphate [4] was determined as 0.000849 ± 0.00013 s⁻¹. Further, in the data set with glucosamine-6-phosphate [5], the “self-cleavage kobs at 10000 uM GlcN6P” value turned out to be 0.000435 ± 5.5e-05 s⁻¹.

As for U46C U49G, the kcat with glucosamine-6-phosphate [1] was 0.000109 ± 8.3e-06 s⁻¹. For the same variant, the Michaelis-Menten constant (KM) with glucosamine-6-phosphate [2] turned out to be 817 ± 220 µM. The “self-cleavage kobs at 640 uM GlcN6P” value with glucosamine-6-phosphate [3] came out at 4.66e-05 ± 1.2e-05 s⁻¹. Also, the “self-cleavage kobs at 2500 uM GlcN6P” value with glucosamine-6-phosphate [4] came out at 8.96e-05 ± 1.6e-05 s⁻¹. Moreover, the “self-cleavage kobs at 10000 uM GlcN6P” value with glucosamine-6-phosphate [5] turned out to be 9.78e-05 ± 1.5e-05 s⁻¹.

In the case of U47G U54A, in the data set with glucosamine-6-phosphate [1], the turnover number (kcat) was determined as 0.00987 ± 0.0039 s⁻¹. The “self-cleavage kobs at 40 uM GlcN6P” value with glucosamine-6-phosphate [6] came out at 0.000306 ± 4.7e-05 s⁻¹. Besides, the “self-cleavage kobs at 640 uM GlcN6P” value with glucosamine-6-phosphate [3] was 0.00157 ± 0.00052 s⁻¹. In addition, in the data set with glucosamine-6-phosphate [4], the “self-cleavage kobs at 2500 uM GlcN6P” value amounted to 0.00522 ± 0.0019 s⁻¹. Further, in the data set with glucosamine-6-phosphate [5], the “self-cleavage kobs at 10000 uM GlcN6P” value came to 0.00946 ± 0.0015 s⁻¹.

On to C70A C71U, for which, in the data set with glucosamine-6-phosphate [1], the kcat was found to be 9.41e-05 ± 4.3e-06 s⁻¹. Moreover, the Michaelis-Menten constant (KM) with glucosamine-6-phosphate [2] is 384 ± 58 µM. In addition, the “self-cleavage kobs at 160 uM GlcN6P” value with glucosamine-6-phosphate [7] amounted to 2.83e-05 ± 1e-05 s⁻¹. In addition, in the data set with glucosamine-6-phosphate [3], the “self-cleavage kobs at 640 uM GlcN6P” value is 5.75e-05 ± 1e-05 s⁻¹. In the data set with glucosamine-6-phosphate [4], the “self-cleavage kobs at 2500 uM GlcN6P” value is 8.22e-05 ± 1e-05 s⁻¹.

Take G37U C70U C71U: the kcat with glucosamine-6-phosphate [1] was 1.13e-05 ± 3.2e-06 s⁻¹.

On to A14G G59A, for which the turnover number (kcat) with glucosamine-6-phosphate [1] turned out to be 0.000294 ± 1.8e-05 s⁻¹. The Michaelis constant (KM) with glucosamine-6-phosphate [2] worked out at 2010 ± 250 µM. Moreover, in the data set with glucosamine-6-phosphate [3], the “self-cleavage kobs at 640 uM GlcN6P” value was 6.96e-05 ± 1.2e-05 s⁻¹. Moreover, in the data set with glucosamine-6-phosphate [4], the “self-cleavage kobs at 2500 uM GlcN6P” value worked out at 0.000183 ± 3.7e-05 s⁻¹. The “self-cleavage kobs at 10000 uM GlcN6P” value with glucosamine-6-phosphate [5] amounted to 0.000239 ± 3e-05 s⁻¹.

As to A12C G66U, the kcat with glucosamine-6-phosphate [1] stood at 0.00165 ± 0.00058 s⁻¹. Further, the KM with glucosamine-6-phosphate [2] turned out to be 1990 ± 990 µM. Besides, in the data set with glucosamine-6-phosphate [6], the “self-cleavage kobs at 40 uM GlcN6P” value was 5.83e-05 ± 1.3e-05 s⁻¹. In addition, in the data set with glucosamine-6-phosphate [7], the “self-cleavage kobs at 160 uM GlcN6P” value amounted to 9.73e-05 ± 1.3e-05 s⁻¹. In addition, the “self-cleavage kobs at 640 uM GlcN6P” value in the data set with glucosamine-6-phosphate [3] amounted to 0.000586 ± 6.9e-05 s⁻¹. Moreover, the “self-cleavage kobs at 2500 uM GlcN6P” value with glucosamine-6-phosphate [4] was 0.000865 ± 0.00014 s⁻¹. For the same variant, the “self-cleavage kobs at 10000 uM GlcN6P” value in the data set with glucosamine-6-phosphate [5] stood at 0.00133 ± 0.0002 s⁻¹.
